Measurements reported in US20250129146A1, “COMBINED CANCER THERAPY WITH AN EPITHELIAL CELL ADHESION MOLECULE (EPCAM) INHIBITOR AND A WNT INHIBITOR” (ACADEMIA SINICA, priority 2021, published 2025).

B1: EpEX: extracellular domain of EpCAM, produced in house by Expi293 Expression System (protein)
chain: QEECVCENYKLAVNCFVNNNRQCQCTSVGAQNTVICSKLAAKCLVMKAEMNGSKLGRRAKPEGALQNNDGLYDPDCDESGLFKAKQCNGTSMCWCVNTAGVRRTDKDTEITCSERVRTYWIIIELKHKAREKPYDSKSLRTALQKEITTRYQLDPKFITSILYENNVITIDLVQNSSQKTQNDVDIADVAYYFEKDVKGESLFHSKKMDLTVNGEQLDLDPGQTLIYYVDEKAPEFSMQGLKAGVIAVIVVVVIAVVAGIVVLVISRKKRMAKYEKAEIKEMGEMHRELNA
B2: Wnt3A: recombinant Wnt3A (R & D systems) (protein, UniProt P56704 19-352, looked up)
Protein Wnt-3a: SYPIWWSLAVGPQYSSLGSQPILCASIPGLVPKQLRFCRNYVEIMPSVAEGIKIGIQECQHQFRGRRWNCTTVHDSLAIFGPVLDKATRESAFVHAIASAGVAFAVTRSCAEGTAAICGCSSRHQGSPGKGWKWGGCSEDIEFGGMVSREFADARENRPDARSAMNRHNNEAGRQAIASHMHLKCKCHGLSGSCEVKTCWWSQPDFRAIGDFLKDKYDSASEMVVEKHRESRGWVETLRPRYTYFKVPTERDLVYYEASPNFCEPNPETGSFGTRDRTCNVSSHGIDGCDLLCCGRGHNARAERRREKCRCVFHWCCYVSCQECTRVYDVHTCK
B3: EpAb2-6: anti-EpCAM (EpEX) neutralizing monoclonal antibody produced in mice by hybridoma; VH SEQ ID NO: 15, VL SEQ ID NO: 16 (antibody, V domains shown)
VH: VKLQESGPELKKPGETVKISCKASGYTFTDYSMHWVKQAPGKGLKWMGWINTETGEPTYADDFKGRFAFSLETSASTAYLQINNLKNEDTATYFCARTAVYWGQGTTVTVSS
VL: DIQMTQSPSSLSASLGERVSLTCRASQEISVSLSWLQQEPDGTIKRLIYATSTLDSGVPKRFSGSRSGSDYSLTISSLESEDFVDYYCLQYASYPWTFGGGTKLEIK

Legend:
[1] = tested on: colon cancer cells (SW620, HCT116); test: Annexin-V/PI apoptosis assay; assay type: cell-based, human
Method: Cells were seeded in 24-well plate ([…] cells per well) overnight and then treated with 20 μg/mL mEpAb2-6, hEpAb2-6 or MT201, or […] LGK974 (MedChemExpress) or the combination for 24 hrs. Cell pellets were collected, and an apoptosis assay was performed using an Annexin-V/PI apoptosis kit (BD Biosciences). Results were read by flow cytometry analysis percentage apoptotic cells was calculated.

EpCAM = test: Antibody binding to EpCAM wild-type, deletion and point mutants in HEK293T cells (immunofluorescence, flow cytometry, cellular ELISA); set-up: species or system human; conditions: mutations at EpCAM positions Y32 (EGF-I domain) or Y95 (EGF-II domain); HEK293T cells
Method: FIGS. 18A to 18G. […] HEK293T cells were transfected with full length or EGF like-domain deletion mutant EpCAM-V5. Antibody binding was assessed by (FIG. 8A) Western blotting, (FIG. 8B) flow cytometry, and (FIG. 8C) immunofluorescence. (FIG. 8D) EpCAM mutants were constructed with amino acid substitutions in the EGF-I (Y32A) and EGF-II (L94A, Y95A, or D96A) domains. EpCAM wild-type and mutant proteins were expressed in HEK293T cells. Binding of MT201, EpAb2-6 and EpAb23-1 to EpCAM wild-type and mutants were evaluated by (FIG. 8E) immunofluorescence, (FIG. 8F) flow cytometry, and (FIG. 8G) cellular ELISA. All data are presented as mean±SEM. *, p<0.05; **, p<0.01.
Here, we wanted to determine whether the antibody binds to EpCAM at both EGF-like domains of EpEX (FIG. 18A, FIG. 18B, FIG. 18C). To confirm that EpAb2-6 recognizes the LYD motif in EpCAM, we constructed cDNA sequences encoding the first (aa 27-59; EGF-I domain) and second (aa 66-135; EGF-II/TY domain) EGF-like repeats of EpCAM. PCR-based site-directed mutagenesis was then used to introduce mutations into each domain (FIG. 18D). The reactivity of EpAb2-6 antibody toward these EpCAM mutants was evaluated by immunofluorescence (FIG. 18E), flow cytometry (FIG. 18F), and cellular ELISA (FIG. 18G).

TACE = TACE activity assay; assay type: cell-based, human; conditions: HCT116 and HT29 cells; 250 ng/mL EpEX-His or 100 ng/mL Wnt3A for 8 h, or combination
Method: Cells were seeded overnight in 24-well plate ([…] cells per well) and further treated with 250 ng/mL EpEX-His or 100 ng/mL Wnt3A (R&D Systems) for 8 h. Then, TACE activity was measured using the InnoZyme TACE activity kit (Merck). In brief, cell lysates were prepared with RIPA buffer and loaded into a TACE antibody-coated plate and incubated at RT for 1 h with slight shaking. Further, the lysates were removed and the plate was washed three times. Substrate was added into each well and incubated for 5 h at 37° C. Finally, the fluorescence signal of the reaction product was detected at excitation of 324 nm and emission of 405 nm using a microplate reader.

γ-secretase = test: γ-Secretase activity (luciferase reporter); assay type: cell-based, human; conditions: HCT116 and HT29 cells; 250 ng/mL EpEX-His or 100 ng/mL Wnt3A for 8 h, or combination
Method: The γ-secretase activity was measured using the protocol described by Liao et al (2004) (Liao et al., 2004). In brief, cells were transiently transfected with the control plasmid and tetracycline-inducible γ-secretase plasmid harboring luciferase (Liao et al., 2004) (the plasmids were generous gifts from Dr. Yung-Feng Liao, ICOB, Academia Sinica). Cells were treated with 250 ng/mL EpEX-His or 100 ng/mL Wnt3A (R&D Systems) for 8 h. Further, cells were lysed using passive lysis buffer and subjected to the luciferase assay.

[2] = tested on: TACE and presenilin-2 (PS2); test: Phosphorylation of ADAM17 (TACE) and Presenilin2 (western blot); assay type: cell-based, human; conditions: HCT116 cells; EpEX, Wnt3A for 8 h
Method: For western blotting, cells were extracted using radioimmunoprecipitation assay (RIPA) buffer [(0.01 M sodium phosphate, pH 7.2), 150 mM NaCl, 2 mM EDTA, 50 mM NaF, 1% Nonidet P-40, 1% sodium deoxycholate, and 0.1% SDS)] containing phosphatase inhibitor (Roche) and protease inhibitor (Roche) cocktail. Equal amounts of protein were separated by SDS-PAGE and then transferred to PVDF membranes. The membranes were blocked with 3% BSA in TBST (Blocking solution) and incubated with necessary primary antibodies in the blocking solution overnight at 4° C. Membranes were then incubated with HRP-conjugated secondary antibodies in the blocking solution for 1 h at room temperature, and protein expression were detected. Antibodies used: anti-α-tubulin (Sigma), anti-EpCAM (abeam), anti-Active β-Catenin (Millipore), anti-total β-Catenin (abeam), anti-Frizzled 6 (CST), anti-Frizzled 7 (Santa Cruz Biotech), anti-LRP5 (abcam), anti-Phospho-LRP5 (abcam), anti-Phospho-LRP6 (CST), anti-LRP6 (CST) and anti-EpEX antibody EpAb3-5 (Produced in house), anti-ADAM17 (abcam), anti-phopho-ADAM17 (abcam), anti-Presenilin2 (abcam), anti-phospho-Presenilin2 (S327) (abcam), anti-phospho-Presenilin2 (S330) (abcam) and anti-Axin2 (CST).
To study the kinase activity of GSK3 and CK1, 10^6 cells were seeded overnight and treated with GSK3 inhibitor BIO (Sigma) or CK1 inhibitor PF-670462 (selleckchem) for 8 h. […]

recombinant LRP5 = biological target: T1, recombinant LRP5 (Homo sapiens, UniProt O75197); test: ELISA of EpEX binding to Wnt receptor-coated plates (LRP5)
T1 construct: purchased Proteintech
Method: (§1) For ELISA, wells (at least 6 wells per single protein) were coated with recombinant FZD6 (Proteintech), recombinant FZD7 (Proteintech), recombinant LRP5 (Proteintech), recombinant LRP6 (Proteintech) overnight at 4° C. The wells were then blocked with 1% BSA and treated with EpEX-his (Produced in house by Expi293 Expression System) for 2 hours. Otherwise, EpEX-His was incubated with EpAb2-6 overnight and the complex was used to treat the protein-coated plates for 2 hours. Further anti-His antibody (abeam) was used and TMB was performed to record optical density at 450 nm.

recombinant FZD7 = biological target: T2, recombinant FZD7 (Homo sapiens, UniProt O75084); test: ELISA of EpEX binding to Wnt receptor-coated plates (FZD7)
T2 construct: purchased Proteintech
Method: as §1

[3] = EpEX-His alone, 2 hours, optical density at 450 nm
[4] = EpEX-His incubated with antibody overnight

T1 sequence (O75197 32-1615): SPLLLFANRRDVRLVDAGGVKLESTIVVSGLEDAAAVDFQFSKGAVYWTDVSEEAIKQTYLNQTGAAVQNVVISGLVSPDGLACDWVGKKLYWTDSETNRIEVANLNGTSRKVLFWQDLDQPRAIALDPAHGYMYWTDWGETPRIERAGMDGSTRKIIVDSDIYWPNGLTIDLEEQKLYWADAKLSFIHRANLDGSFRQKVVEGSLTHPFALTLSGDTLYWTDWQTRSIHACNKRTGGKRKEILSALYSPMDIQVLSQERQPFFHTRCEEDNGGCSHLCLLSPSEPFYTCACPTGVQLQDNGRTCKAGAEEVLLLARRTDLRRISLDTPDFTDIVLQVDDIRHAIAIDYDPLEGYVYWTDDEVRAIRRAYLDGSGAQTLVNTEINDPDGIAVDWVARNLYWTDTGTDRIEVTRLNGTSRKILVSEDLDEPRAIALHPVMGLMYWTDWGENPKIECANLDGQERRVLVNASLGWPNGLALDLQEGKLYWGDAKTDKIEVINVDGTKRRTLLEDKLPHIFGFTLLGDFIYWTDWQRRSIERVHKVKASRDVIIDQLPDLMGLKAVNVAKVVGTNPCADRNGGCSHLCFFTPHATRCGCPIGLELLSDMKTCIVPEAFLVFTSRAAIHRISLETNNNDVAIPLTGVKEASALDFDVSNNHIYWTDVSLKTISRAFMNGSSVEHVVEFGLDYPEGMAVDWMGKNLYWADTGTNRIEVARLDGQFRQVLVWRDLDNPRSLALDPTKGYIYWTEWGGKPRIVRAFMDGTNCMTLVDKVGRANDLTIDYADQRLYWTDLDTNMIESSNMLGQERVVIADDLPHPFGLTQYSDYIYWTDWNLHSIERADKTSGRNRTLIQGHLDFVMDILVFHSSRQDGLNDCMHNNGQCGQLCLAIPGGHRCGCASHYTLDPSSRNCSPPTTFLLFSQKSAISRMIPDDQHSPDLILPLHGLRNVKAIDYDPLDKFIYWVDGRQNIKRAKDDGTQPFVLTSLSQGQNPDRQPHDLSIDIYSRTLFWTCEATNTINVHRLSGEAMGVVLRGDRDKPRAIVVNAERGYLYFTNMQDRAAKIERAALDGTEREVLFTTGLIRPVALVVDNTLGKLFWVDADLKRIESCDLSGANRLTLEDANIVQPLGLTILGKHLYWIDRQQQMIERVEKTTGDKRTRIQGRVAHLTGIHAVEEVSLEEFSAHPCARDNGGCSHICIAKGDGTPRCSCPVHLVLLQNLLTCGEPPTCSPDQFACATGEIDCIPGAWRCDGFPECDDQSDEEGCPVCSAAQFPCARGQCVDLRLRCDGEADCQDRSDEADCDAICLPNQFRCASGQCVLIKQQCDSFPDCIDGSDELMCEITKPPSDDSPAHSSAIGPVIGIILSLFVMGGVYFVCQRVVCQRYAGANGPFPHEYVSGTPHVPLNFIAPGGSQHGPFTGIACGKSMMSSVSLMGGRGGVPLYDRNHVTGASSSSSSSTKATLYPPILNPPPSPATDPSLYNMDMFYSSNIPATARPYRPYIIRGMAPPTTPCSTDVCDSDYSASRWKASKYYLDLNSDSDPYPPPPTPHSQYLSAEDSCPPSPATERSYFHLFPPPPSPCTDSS

EpEX binding to LRP5 (recombinant LRP5; [3])	EpEX binding to FZD7 (recombinant FZD7; [3])	Molecule	induction of apoptosis ([1]; HCT116 cells, 20 μg/mL hEpAb2-6, mEpAb2-6 or MT201 for 24 hrs)	antibody binding to EpCAM mutants (EpCAM)	TACE activity (TACE)	γ-secretase activity (γ-secretase)	phosphorylation of TACE and presenilin-2 (PS2) [2]	induction of apoptosis ([1]; SW620 and HCT116 cells, 20 μg/mL EpAb2-6, LGK974 or the combination for 24 hrs)	EpEX binding to LRP5 after pre-incubation with antibody (recombinant LRP5; [4])	EpEX binding to FZD7 after pre-incubation with antibody (recombinant FZD7; [4])
		MT201: adecatumumab, a human anti-EpCAM antibody that was subjected to clinical trials [reference compound]	does not have such activity	did not affect MT201 binding						
bind with all receptor proteins	bind with all receptor proteins	B1			enhanced	enhanced	increases the phosphorylation			
		B2			enhanced	enhanced	increases the phosphorylation			
		B3		marked reductions in EpAb2-6 binding				could induce apoptosis	substantially decreased binding	substantially decreased binding
